Assay results as given in the RNAGym collection of RNA variant scans (doi:10.1073/pnas.2313332121).
Fewer inactive variants are shown than the library holds.

B1: TPR 5TU (parent)
chain: GGAUCUUCUCGAUCUAACAAAAAAGACAAAUCUGCCACAAAGCUUGAGAGCAUCUUCGGAUGCAGAGGCGGCAGCCUUCGGUGGCGCGAUAGCGCCAACGUUCUCAACUAUGACACGCAAAACGCGUGCUCCGUUGAAUGGAGUUUAUCAUG

Variants of: B1
Assay: polymerase ribozyme fitness, log enrichment relative to wild type (log ratio); higher = more active; in vitro selection for triplet polymerase activity
Procedure, shortened: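 PCR was used to build mutant libraries for each subunit of a heterodimeric triplet polymerase ribozyme, which were then transcribed. A single in vitro selection round, in triplicate, used a frozen incubation at −7 °C and recovered extended constructs by gel excision, streptavidin beads and RT-PCR. Fitness is the logarithm of genotype enrichment relative to wild-type enrichment, averaged over replicates with inverse-variance weights. The logarithm is base 2, and after Illumina sequencing only genotypes with ≥10 input reads and ≥1 read per output were kept.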

Variant | polymerase ribozyme fitness (log ratio)
C87U G92U A97U C99G | ≤ -4.2
C93A A115G C116U | -2.39
G88U C93A | -3.73
A91G G92U G140A | ≤ -4.2
C87U G140A | -3.7
C93A C103G A107U A119G G140A | ≤ -4.2
G92U C116G C132G | -3.8
A91G A98G U130G C131A A150U | ≤ -4.2
C87U U134C | -0.522
G92C C108G G112C C123A G136C A137C A142G | ≤ -4.2
A89C C93U C116U G128A | ≤ -4.2
A91C U102A C132U | -3.54
G92A C103G C129G U134A | ≤ -4.2
C87U | -0.596
G88C C131G U151G | ≤ -4.2
G88U C99A U146C | ≤ -4.2
G92U G141C U146A | -0.994
A91G C125A | -3.21
C87U U148G | -3.83
A91C U104A | ≤ -4.2
U90C U145G | ≤ -4.2

Variant | polymerase ribozyme fitness (log ratio)
A91U A147C | ≤ -4.2
C87U C116U | -0.851
G88A U109C A142C | -4.19
A91G U144C | -2.47
C93A C99A | ≤ -4.2
G92U C95U A147G U148A | -3.45
A89C C131A | -3.23
G92A A106C | -3.04
U90G G92C | ≤ -4.2
A89G A142C | -1.45
G88A U104G | ≤ -4.2
U90A A106C G128A | ≤ -4.2
U90A C131A G143A | -4.19
A89C U101C U146A | 0.0757
G92A A98U U111A C123U U144A A150C | ≤ -4.2
C87U U102G | -3.08
C87U U102C A115C | -2.7
G88C C118G G140A | ≤ -4.2
G88A A150C | ≤ -4.2
C87U G112A | -3.91
C87U A120C G152U | -3.33

Variant | polymerase ribozyme fitness (log ratio)
G92A C95A | -3.27
A89C A110C | ≤ -4.2
C93A G100U U102G G117U A138C | ≤ -4.2
G88U C96G A106U G143A | ≤ -4.2
G88C G100A | ≤ -4.2
G92A C96A | -3.11
A91U G141U | ≤ -4.2
A91U G141C | -4.05
A91G C95U | -2.75
G88A C93G C96A A110G C123G | ≤ -4.2
C87G G126A | -4.11
G88A C93G C108U A120U A137U | ≤ -4.2
A91C A98U C116A A121G U130G | ≤ -4.2
G92A C103A | -3.9
G92A C103G | -4
C87U C149A | -3.78
C93A A121G U144A | -1.18
U90A C95A | ≤ -4.2
G92U C99G | -1.57
C87U A110U A120C U135A G136A | ≤ -4.2
G88A G94U U146C | -4.14

Variant | polymerase ribozyme fitness (log ratio)
G92U A138U | -4.2
A89G A120C | -1.41
A91C A115G | -4.07
U90A A119U G126A | ≤ -4.2
A89C C93U U135A | -3.55
A91G C96U U101C U144G | -2.18
C93A U151A | ≤ -4.2
A89G A98G C99G | -2.3
C87U C99G U127A | ≤ -4.2
A91G A115C | -3.57
U90C G94U A120U G124U | ≤ -4.2
G92C C123U | -2.47
G92A A121U | -2.71
A89U U144C | 0.497
C87U A98U | -1.16
C93A A98U | -0.828
C93A C125G | -2.62
G92C C114U G141U | ≤ -4.2
C87U C93G | -4.18
C87U C93A | -3.93
A91G C96U | -3.04
